Measurements reported in patent US20100159529, “DRY COMPOSITION OF REACTION COMPOUNDS WITH STABILIZED POLMERASE” (published 2010).

Assays:
Taq DNA polymerase [1] = target: T1, Taq DNA polymerase (UniProt P19821 P19821:1-832); experiment: cell_free PCR activity after drying, other; indirect functional evidence: aptamer (0.65 pmol/U Taq) preserves qPCR activity after drying with primers/probes and 1 week at 37 C; Wsebi casein Cp 24.0 vs no; details: tags: glycerol free; Roche AptaTaq when complexed with aptamer
T1 sequence (P19821 whole entry, one chain of several): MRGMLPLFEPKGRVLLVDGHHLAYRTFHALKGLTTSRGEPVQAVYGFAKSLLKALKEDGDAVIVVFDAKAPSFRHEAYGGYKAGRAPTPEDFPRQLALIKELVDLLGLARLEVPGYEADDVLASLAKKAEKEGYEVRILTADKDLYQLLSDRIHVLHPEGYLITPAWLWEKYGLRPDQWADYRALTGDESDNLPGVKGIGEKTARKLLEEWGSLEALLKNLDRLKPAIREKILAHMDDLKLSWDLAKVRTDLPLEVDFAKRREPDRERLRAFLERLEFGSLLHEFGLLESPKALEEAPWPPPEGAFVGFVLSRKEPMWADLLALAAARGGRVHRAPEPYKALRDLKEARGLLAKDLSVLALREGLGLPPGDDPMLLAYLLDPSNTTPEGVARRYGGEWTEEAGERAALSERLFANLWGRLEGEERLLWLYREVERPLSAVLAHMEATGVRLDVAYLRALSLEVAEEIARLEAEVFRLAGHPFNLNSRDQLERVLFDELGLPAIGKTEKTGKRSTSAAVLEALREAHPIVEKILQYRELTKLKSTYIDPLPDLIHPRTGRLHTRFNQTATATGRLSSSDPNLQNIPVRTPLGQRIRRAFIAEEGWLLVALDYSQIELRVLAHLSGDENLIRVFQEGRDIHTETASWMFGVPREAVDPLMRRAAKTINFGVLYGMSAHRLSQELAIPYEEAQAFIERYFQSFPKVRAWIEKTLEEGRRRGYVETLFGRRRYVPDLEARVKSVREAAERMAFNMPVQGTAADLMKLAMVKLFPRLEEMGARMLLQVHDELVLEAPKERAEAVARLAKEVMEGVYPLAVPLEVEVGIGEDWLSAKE
Description: The PCR performance of the polymerase after storage and re-solubilization was analyzed with and without detection mix (with or without primers and probes) using two different parameters. The liquid mixtures were dried 16 hours at 200 mbar and stored for 1 week at 37° C. prior to re-solubilization. As a control a liquid mixture without drying was used, too (called liquid reference in the following).
All mixtures were provided within wells of a 384 microtiter plate (Roche Diagnostic GmbH) and after the re-solubilization a PCR run was performed on the LightCycler®480 (Roche Diagnostic GmbH) using the following run protocol: [0123] 5 minutes 95° C. [0124] 10 seconds 95° C., 30 seconds 60° C., 1 second 72° C. (45×) [0125] 10 seconds 40° C.

Taq DNA polymerase [2] = target: T1, Taq DNA polymerase; experiment: indirect functional evidence: 0.5 uM aptamer with 0.8 U/ul Taq preserves qPCR activity after drying with primers/probes and 1 week at 37 C; Wsebi Cp 24.8 vs liquid reference 24.7; 60 mM Tris pH 8.3, 60 mM KCl, 6.4 mM MgCl2; binding not measured directly; details: tags: glycerol free; Roche AptaTaq when complexed with aptamer
Description: The PCR performance of the polymerase with both aptamers were analyzed with detection mix (with primers and probes) after storage and re-solubilization using two different parameters. The liquid mixtures were dried 16 hours at 200 mbar and stored for 1 week at 37° C. prior to re-solubilization. As a control a liquid mixture without drying was used, too (called liquid reference in the following).

Row | Binder | binding result (Taq DNA polymerase [1]) | binding result (Taq DNA polymerase [2])
1 | CGATCATCTCAGAACATTCTTAGCGTTTTGTTCTTGTGTATGATCG (ssDNA) [NTQ12-46A] | binds | –
2 | GATCATCTCAGAACATTCTTAGCGTTTTGTTCTTGTGTATGA (ssDNA) [21-42-P (also printed 21-41-P)] | – | binds
